Assay results as given in publication PMC9188544, “Mechanism of glycogen synthase inactivation and interaction with glycogenin” (Nature Communications, 2022).

Assays:
[1] = biological target: T1, human glycogen synthase 1 (GS1) H610E (human, UniProt P13807 1-737, H610E, phosphorylation at S8, S641 and S641/S645 probed by immunoblot (Fig. 4b)); test: co-purification (HisTrap, TEV cleavage, Ni subtraction, Superdex200 gel filtration); GS WT or mutant co-expressed with GN(Y195F) in insect cells, both with N-terminal His6-TEV; lysate loaded on the HisTrap column; details: partners not purified
T1 construct: glycogen synthase 1 (muscle), human, encoded by GYS1, cDNA NM 002103; also called GS H610E; not shown: His6, N-terminal, cleaved
T1 sequence (looked up): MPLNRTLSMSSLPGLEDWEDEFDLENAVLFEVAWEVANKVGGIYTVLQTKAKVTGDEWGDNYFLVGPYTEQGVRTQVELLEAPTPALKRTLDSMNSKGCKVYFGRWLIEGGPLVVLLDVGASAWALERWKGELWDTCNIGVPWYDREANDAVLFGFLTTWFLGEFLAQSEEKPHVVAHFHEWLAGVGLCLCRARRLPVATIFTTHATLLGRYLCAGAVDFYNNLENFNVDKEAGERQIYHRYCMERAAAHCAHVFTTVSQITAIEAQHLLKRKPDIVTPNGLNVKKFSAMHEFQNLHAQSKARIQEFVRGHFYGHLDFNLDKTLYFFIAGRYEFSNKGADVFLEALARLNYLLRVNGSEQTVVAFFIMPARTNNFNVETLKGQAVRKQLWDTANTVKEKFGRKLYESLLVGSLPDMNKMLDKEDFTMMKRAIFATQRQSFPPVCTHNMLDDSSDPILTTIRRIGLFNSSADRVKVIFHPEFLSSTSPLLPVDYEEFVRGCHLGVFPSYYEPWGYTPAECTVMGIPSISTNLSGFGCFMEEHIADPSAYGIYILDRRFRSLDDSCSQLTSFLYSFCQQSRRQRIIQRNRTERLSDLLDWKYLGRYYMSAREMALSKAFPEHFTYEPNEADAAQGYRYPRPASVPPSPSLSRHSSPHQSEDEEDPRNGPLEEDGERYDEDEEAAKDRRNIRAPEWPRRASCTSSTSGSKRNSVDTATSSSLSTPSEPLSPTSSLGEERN

[2] = biological target: T2, human glycogen synthase 1 (GS1), wild type, pFastBac construct with N-terminal His6-TEV, co-expressed with … (human, UniProt P13807 1-737, phosphorylation at S8, S641 and S641/S645 probed by immunoblot (Fig. 4b)); test: as above; details: partners not purified
T2 construct: glycogen synthase 1 (muscle), human, encoded by GYS1, cDNA NM 002103; also called GS WT; WT GS; not shown: His6, N-terminal, cleaved
T2 sequence (looked up): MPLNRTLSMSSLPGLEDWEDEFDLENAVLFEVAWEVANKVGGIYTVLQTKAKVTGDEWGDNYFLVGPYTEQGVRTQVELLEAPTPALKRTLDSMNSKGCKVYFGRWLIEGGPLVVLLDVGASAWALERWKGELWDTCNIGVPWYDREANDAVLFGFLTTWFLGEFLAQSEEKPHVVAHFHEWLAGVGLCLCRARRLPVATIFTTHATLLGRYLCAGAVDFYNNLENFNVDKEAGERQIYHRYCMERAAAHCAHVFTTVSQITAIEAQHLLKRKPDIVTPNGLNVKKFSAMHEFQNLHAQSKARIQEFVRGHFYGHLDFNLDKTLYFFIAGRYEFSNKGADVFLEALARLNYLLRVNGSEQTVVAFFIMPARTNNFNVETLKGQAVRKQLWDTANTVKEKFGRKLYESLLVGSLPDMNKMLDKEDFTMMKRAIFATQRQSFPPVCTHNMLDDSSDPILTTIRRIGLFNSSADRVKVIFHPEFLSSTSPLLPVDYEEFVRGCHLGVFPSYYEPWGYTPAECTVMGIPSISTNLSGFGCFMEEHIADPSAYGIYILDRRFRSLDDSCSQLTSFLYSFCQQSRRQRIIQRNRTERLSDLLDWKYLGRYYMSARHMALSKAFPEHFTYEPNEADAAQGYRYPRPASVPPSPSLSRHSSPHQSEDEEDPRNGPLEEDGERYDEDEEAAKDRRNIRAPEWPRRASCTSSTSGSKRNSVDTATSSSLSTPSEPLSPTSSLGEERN

[3] = biological target: T3, human glycogen synthase 1 (GS1) R603A (human, UniProt P13807 1-737, R603A, phosphorylation at S8, S641 and S641/S645 probed by immunoblot (Fig. 4b)); test: as above; details: partners not purified
T3 construct: glycogen synthase 1 (muscle), human, encoded by GYS1, cDNA NM 002103; also called GS R603A; not shown: His6, N-terminal, cleaved
T3 sequence (looked up): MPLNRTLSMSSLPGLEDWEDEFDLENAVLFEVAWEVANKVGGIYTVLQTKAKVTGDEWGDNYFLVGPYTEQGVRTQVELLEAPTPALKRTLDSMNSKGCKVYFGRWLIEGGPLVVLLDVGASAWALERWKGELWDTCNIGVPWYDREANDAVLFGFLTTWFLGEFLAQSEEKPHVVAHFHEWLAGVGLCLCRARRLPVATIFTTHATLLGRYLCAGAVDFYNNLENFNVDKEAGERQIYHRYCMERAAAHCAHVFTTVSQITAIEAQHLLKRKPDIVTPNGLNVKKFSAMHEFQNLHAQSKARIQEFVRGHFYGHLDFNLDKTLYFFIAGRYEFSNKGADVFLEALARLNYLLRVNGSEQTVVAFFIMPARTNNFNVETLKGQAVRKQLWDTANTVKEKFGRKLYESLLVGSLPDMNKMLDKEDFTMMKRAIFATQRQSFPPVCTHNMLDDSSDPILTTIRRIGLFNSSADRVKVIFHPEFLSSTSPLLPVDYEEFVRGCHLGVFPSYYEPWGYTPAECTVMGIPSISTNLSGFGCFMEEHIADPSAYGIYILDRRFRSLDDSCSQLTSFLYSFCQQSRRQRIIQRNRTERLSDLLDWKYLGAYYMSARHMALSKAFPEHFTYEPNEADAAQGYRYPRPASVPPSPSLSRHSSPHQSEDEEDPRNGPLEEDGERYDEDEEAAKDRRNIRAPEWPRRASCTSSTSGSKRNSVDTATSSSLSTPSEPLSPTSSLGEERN

[4] = biological target: the molecule itself; test: negative-stain electron microscopy; purified co-expressed complex at 0.01-0.02 mg/mL in 25 mM HEPES pH 7.5, 150 mM NaCl, 1 mM TCEP, 10% glycerol; uranyl acetate stain; 2D classes and 3D map (C1, ~22 Å)

binding result [1]: binds
binding result [2]: binds
binding result [3]: binds
B1: human glycogenin 1 (GN1) Y195F, full length, non-glucosylated (enzyme, UniProt P46976-2 1-333, looked up)
chain: MTDQAFVTLTTNDAYAKGALVLGSSLKQHRTTRRLVVLATPQVSDSMRKVLETVFDEVIMVDVLDSGDSAHLTLMKRPELGVTLTKLHCWSLTQYSKCVFMDADTLVLANIDDLFDREELSAAPDPGWPDCFNSGVFVYQPSVETYNQLLHLASEQGSFDGGDQGILNTFFSSWATTDIRKHLPFIYNLSSISIFSYLPAFKVFGASAKVVHFLGRVKPWNYTYDPKTKSVKSEAHDPNMTHPEFLILWWNIFTTNVLPLLQQFGLVKDTCSYVNVEDVSGAISHLSLGEIPAMAQPFVSSEERKERWEQGQADYMGADSFDNIKRKLDTYLQ
notes: glycogenin 1, human, encoded by GYG1, cDNA NM 001184720, full length; expected ~37.5 kDa; the C-terminal GN34 region is modelled as residues 300-332, which fits the 333-residue isoform; Cloned in pFL (with untagged GS) and in pFastBac (co-infected with His6-TEV-GS WT or mutants); Both carry an N-terminal His6 tag and a cleavable site, so they are treated as one molecule; also called GN(Y195F); GN …
stoichiometry N [4]: 2
